This note sets out measurements from the supplement of paper PMC9112550, “Optimization of the antimicrobial peptide Bac7 by deep mutational scanning” (BMC Biology, 2022).
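Further: peptides expressed intracellularly from a pBAD plasmid library in pooled LB shake-flask culture, induced with 0.3% L-arabinose, DNA abundance read by NGS, three biological replicates, DESeq2 with apeglm shrinkage.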

For the data set, the system named is Escherichia coli TOP10. Kind of data set: shrunken log2 fold change of peptide-encoding DNA abundance (4.5 h post-induction vs induction); higher = less antimicrobial activity (less host growth inhibition). As to conditions: time post-induction: 4.5 h; library: site-saturation at positions 5, 18, 19, 20.
Consider RRIRLRPPRLPRPRPRPPCDPRP, for which the “shrunken log2 fold change” value was -0.29.

In the case of RRIRYRPPRLPRPRPRPEFSPRP, the “shrunken log2 fold change” value is -0.307.

For RRIRFRPPRLPRPRPRPPVHPRP, the “shrunken log2 fold change” value came out at 0.119.

As to RRIRERPPRLPRPRPRPFCWPRP, the “shrunken log2 fold change” value stood at 0.0996.

On to RRIRRRPPRLPRPRPRPVNDPRP, for which the “shrunken log2 fold change” value was 0.52.

Turning to RRIRDRPPRLPRPRPRPAVLPRP, the “shrunken log2 fold change” value is -0.014.

For the sequence RRIRTRPPRLPRPRPRPKHVPRP, the “shrunken log2 fold change” value was -0.658.

In the case of RRIRSRPPRLPRPRPRPPRGPRP, the “shrunken log2 fold change” value was found to be 0.638.

Turning to RRIRPRPPRLPRPRPRPKPIPRP, the “shrunken log2 fold change” value stood at 0.035.

RRIRCRPPRLPRPRPRPINKPRP: the “shrunken log2 fold change” value was -1.19.

On to RRIRVRPPRLPRPRPRPIHMPRP, for which the “shrunken log2 fold change” value is -0.0179.

Consider RRIRQRPPRLPRPRPRPRLTPRP, for which the “shrunken log2 fold change” value stood at 0.178.

On to RRIRWRPPRLPRPRPRPCSKPRP, for which the “shrunken log2 fold change” value was -0.0575.

As for RRIRERPPRLPRPRPRPIRRPRP, the “shrunken log2 fold change” value was -0.17.

As for RRIRERPPRLPRPRPRPNKKPRP, the “shrunken log2 fold change” value was -0.187.

As for RRIRLRPPRLPRPRPRPSVVPRP, the “shrunken log2 fold change” value is -0.196.

Take RRIRRRPPRLPRPRPRPQWQPRP: the “shrunken log2 fold change” value is 0.435.

In the case of RRIRIRPPRLPRPRPRPYFVPRP, the “shrunken log2 fold change” value was -0.612.

Consider RRIRARPPRLPRPRPRPQFSPRP, for which the “shrunken log2 fold change” value was 0.0761.

With RRIRVRPPRLPRPRPRPMTVPRP, the “shrunken log2 fold change” value is 0.116.

As for RRIRCRPPRLPRPRPRPTMFPRP, the “shrunken log2 fold change” value was -0.2.

As for RRIRKRPPRLPRPRPRPIHVPRP, the “shrunken log2 fold change” value is -0.0353.

RRIRQRPPRLPRPRPRPRGTPRP: the “shrunken log2 fold change” value came out at 0.313.

Take RRIRPRPPRLPRPRPRPRFSPRP: the “shrunken log2 fold change” value was -0.0121.

With RRIRNRPPRLPRPRPRPSQPPRP, the “shrunken log2 fold change” value is -0.0682.

RRIRDRPPRLPRPRPRPFRCPRP: the “shrunken log2 fold change” value was -0.0101.

As to RRIRVRPPRLPRPRPRPHLNPRP, the “shrunken log2 fold change” value is -0.455.

As to RRIRERPPRLPRPRPRPQPIPRP, the “shrunken log2 fold change” value turned out to be 0.0322.

For the sequence RRIRHRPPRLPRPRPRPGVHPRP, the “shrunken log2 fold change” value was -0.9.

For the sequence RRIRKRPPRLPRPRPRPDMIPRP, the “shrunken log2 fold change” value was 0.013.

As to RRIRIRPPRLPRPRPRPVRCPRP, the “shrunken log2 fold change” value amounted to 0.201.

As to RRIRPRPPRLPRPRPRPAYRPRP, the “shrunken log2 fold change” value is -0.0399.

RRIRVRPPRLPRPRPRPCQTPRP: the “shrunken log2 fold change” value was -0.03.

On to RRIRTRPPRLPRPRPRPVWMPRP, for which the “shrunken log2 fold change” value was -0.0336.

For RRIRVRPPRLPRPRPRPLYDPRP, the “shrunken log2 fold change” value is -0.257.

For RRIRKRPPRLPRPRPRPMWYPRP, the “shrunken log2 fold change” value came to 0.0551.

For the sequence RRIRLRPPRLPRPRPRPQNKPRP, the “shrunken log2 fold change” value was -0.432.

For RRIRTRPPRLPRPRPRPNTRPRP, the “shrunken log2 fold change” value was -0.318.

Turning to RRIRIRPPRLPRPRPRPIFDPRP, the “shrunken log2 fold change” value was -0.237.

For RRIRGRPPRLPRPRPRPNGIPRP, the “shrunken log2 fold change” value was found to be 0.287.

Consider RRIRWRPPRLPRPRPRPKREPRP, for which the “shrunken log2 fold change” value amounted to 0.0441.

On to RRIRLRPPRLPRPRPRPQQMPRP, for which the “shrunken log2 fold change” value was -0.29.

As for RRIRKRPPRLPRPRPRPDVHPRP, the “shrunken log2 fold change” value is -0.00151.

RRIRHRPPRLPRPRPRPRFWPRP: the “shrunken log2 fold change” value is 0.112.

In the case of RRIRHRPPRLPRPRPRPLEPPRP, the “shrunken log2 fold change” value was -0.55.

On to RRIRQRPPRLPRPRPRPTADPRP, for which the “shrunken log2 fold change” value came out at 0.392.

For the sequence RRIRNRPPRLPRPRPRPIMWPRP, the “shrunken log2 fold change” value came to 0.137.

With RRIRMRPPRLPRPRPRPGELPRP, the “shrunken log2 fold change” value was -0.0122.

As to RRIRQRPPRLPRPRPRPKDEPRP, the “shrunken log2 fold change” value was found to be 0.0571.

With RRIRFRPPRLPRPRPRPAWPPRP, the “shrunken log2 fold change” value amounted to 0.268.

RRIRPRPPRLPRPRPRPHSNPRP: the “shrunken log2 fold change” value is -0.316.

Turning to RRIRMRPPRLPRPRPRPQVRPRP, the “shrunken log2 fold change” value was -0.0122.

For the sequence RRIRRRPPRLPRPRPRPHMLPRP, the “shrunken log2 fold change” value is -0.0594.

As to RRIRMRPPRLPRPRPRPAATPRP, the “shrunken log2 fold change” value turned out to be 0.573.

Regarding RRIRHRPPRLPRPRPRPIVIPRP, the “shrunken log2 fold change” value was -0.158.

RRIRWRPPRLPRPRPRPVFRPRP: the “shrunken log2 fold change” value is -0.153.

With RRIRQRPPRLPRPRPRPFKPPRP, the “shrunken log2 fold change” value was -0.0337.

Turning to RRIRERPPRLPRPRPRPCNSPRP, the “shrunken log2 fold change” value was 0.00408.

Consider RRIRNRPPRLPRPRPRPFWVPRP, for which the “shrunken log2 fold change” value came to 0.0863.

On to RRIRNRPPRLPRPRPRPDLWPRP, for which the “shrunken log2 fold change” value worked out at 0.551.

For the sequence RRIRVRPPRLPRPRPRPHGTPRP, the “shrunken log2 fold change” value is -0.408.

Consider RRIRRRPPRLPRPRPRPGGMPRP, for which the “shrunken log2 fold change” value amounted to 0.235.

Turning to RRIRQRPPRLPRPRPRPPWRPRP, the “shrunken log2 fold change” value amounted to 0.619.

Take RRIRSRPPRLPRPRPRPEAIPRP: the “shrunken log2 fold change” value worked out at 0.748.

As for RRIRNRPPRLPRPRPRPPMAPRP, the “shrunken log2 fold change” value was found to be 0.361.

RRIRPRPPRLPRPRPRPYCRPRP: the “shrunken log2 fold change” value was found to be 0.0122.

For RRIRDRPPRLPRPRPRPSYMPRP, the “shrunken log2 fold change” value is -0.111.

Consider RRIRFRPPRLPRPRPRPWMFPRP, for which the “shrunken log2 fold change” value is -0.451.

Regarding RRIRNRPPRLPRPRPRPDYEPRP, the “shrunken log2 fold change” value was -0.00884.

As to RRIRKRPPRLPRPRPRPGPMPRP, the “shrunken log2 fold change” value was 0.595.

RRIRARPPRLPRPRPRPAFDPRP: the “shrunken log2 fold change” value is 1.

In the case of RRIRPRPPRLPRPRPRPQRNPRP, the “shrunken log2 fold change” value was found to be 0.147.

On to RRIRIRPPRLPRPRPRPSWRPRP, for which the “shrunken log2 fold change” value stood at 0.144.

RRIRFRPPRLPRPRPRPMKIPRP: the “shrunken log2 fold change” value was 0.25.

Regarding RRIRARPPRLPRPRPRPMAAPRP, the “shrunken log2 fold change” value is 3.13.

In the case of RRIRLRPPRLPRPRPRPSERPRP, the “shrunken log2 fold change” value was -0.0849.

For RRIRNRPPRLPRPRPRPGYVPRP, the “shrunken log2 fold change” value was -0.077.

Take RRIRWRPPRLPRPRPRPLSLPRP: the “shrunken log2 fold change” value came out at 0.0175.

RRIRCRPPRLPRPRPRPKFMPRP: the “shrunken log2 fold change” value is -0.527.

RRIRFRPPRLPRPRPRPKQTPRP: the “shrunken log2 fold change” value is 1.01.

Regarding RRIRPRPPRLPRPRPRPMNVPRP, the “shrunken log2 fold change” value was -0.0376.

RRIRRRPPRLPRPRPRPARGPRP: the “shrunken log2 fold change” value came out at 0.731.

For the sequence RRIRARPPRLPRPRPRPNTYPRP, the “shrunken log2 fold change” value was -0.627.

RRIRSRPPRLPRPRPRPDTTPRP: the “shrunken log2 fold change” value was -0.191.

As for RRIRNRPPRLPRPRPRPCAMPRP, the “shrunken log2 fold change” value was -0.132.

For RRIRRRPPRLPRPRPRPPPTPRP, the “shrunken log2 fold change” value was determined as 1.12.

With RRIRPRPPRLPRPRPRPQQAPRP, the “shrunken log2 fold change” value was 0.106.

Take RRIRNRPPRLPRPRPRPFNWPRP: the “shrunken log2 fold change” value is -0.123.

Take RRIRSRPPRLPRPRPRPKASPRP: the “shrunken log2 fold change” value was -0.0199.

For RRIRWRPPRLPRPRPRPLRHPRP, the “shrunken log2 fold change” value was 0.751.

RRIRPRPPRLPRPRPRPPPIPRP: the “shrunken log2 fold change” value came out at 0.374.

As to RRIRFRPPRLPRPRPRPSAQPRP, the “shrunken log2 fold change” value was 0.24.

With RRIRNRPPRLPRPRPRPLWSPRP, the “shrunken log2 fold change” value is -0.0388.

For RRIRSRPPRLPRPRPRPSCEPRP, the “shrunken log2 fold change” value is -0.0887.

As for RRIRIRPPRLPRPRPRPKLWPRP, the “shrunken log2 fold change” value is -0.182.

For the sequence RRIRRRPPRLPRPRPRPLDIPRP, the “shrunken log2 fold change” value is -0.121.

In the case of RRIRTRPPRLPRPRPRPNVVPRP, the “shrunken log2 fold change” value is -0.0363.

For RRIRWRPPRLPRPRPRPWMTPRP, the “shrunken log2 fold change” value turned out to be 0.333.

Regarding RRIRERPPRLPRPRPRPQDDPRP, the “shrunken log2 fold change” value was determined as 0.121.

As to RRIRGRPPRLPRPRPRPTMTPRP, the “shrunken log2 fold change” value amounted to 2.08.

On to RRIRRRPPRLPRPRPRPLGLPRP, for which the “shrunken log2 fold change” value was 0.363.

In the case of RRIRQRPPRLPRPRPRPMHNPRP, the “shrunken log2 fold change” value was -0.28.

Take RRIRCRPPRLPRPRPRPMLHPRP: the “shrunken log2 fold change” value was -0.378.

For the sequence RRIRGRPPRLPRPRPRPMVMPRP, the “shrunken log2 fold change” value stood at 0.342.

On to RRIRLRPPRLPRPRPRPWGLPRP, for which the “shrunken log2 fold change” value was determined as 0.171.

For the sequence RRIRERPPRLPRPRPRPHWYPRP, the “shrunken log2 fold change” value was -1.19.

On to RRIRIRPPRLPRPRPRPQKGPRP, for which the “shrunken log2 fold change” value was -0.33.

For RRIRGRPPRLPRPRPRPGEDPRP, the “shrunken log2 fold change” value is 0.872.

RRIRHRPPRLPRPRPRPTVNPRP: the “shrunken log2 fold change” value is -0.144.

As to RRIRSRPPRLPRPRPRPPCGPRP, the “shrunken log2 fold change” value was 0.182.

In the case of RRIRRRPPRLPRPRPRPVLDPRP, the “shrunken log2 fold change” value was found to be 0.402.

In the case of RRIRGRPPRLPRPRPRPAMTPRP, the “shrunken log2 fold change” value stood at 1.48.

As for RRIRRRPPRLPRPRPRPSFHPRP, the “shrunken log2 fold change” value is -0.182.

As for RRIRWRPPRLPRPRPRPEHRPRP, the “shrunken log2 fold change” value was 0.231.

For RRIRKRPPRLPRPRPRPLRQPRP, the “shrunken log2 fold change” value turned out to be 0.00205.

As to RRIRHRPPRLPRPRPRPKWRPRP, the “shrunken log2 fold change” value was 0.328.

Take RRIRMRPPRLPRPRPRPIPEPRP: the “shrunken log2 fold change” value was -0.0403.

As for RRIRHRPPRLPRPRPRPKYGPRP, the “shrunken log2 fold change” value amounted to 0.0196.

Take RRIRHRPPRLPRPRPRPYDWPRP: the “shrunken log2 fold change” value was -0.0123.

For RRIRYRPPRLPRPRPRPCWIPRP, the “shrunken log2 fold change” value was -0.01.

RRIRYRPPRLPRPRPRPFGRPRP: the “shrunken log2 fold change” value was -0.0018.

For RRIRQRPPRLPRPRPRPPTCPRP, the “shrunken log2 fold change” value amounted to 0.224.

Regarding RRIRLRPPRLPRPRPRPFGAPRP, the “shrunken log2 fold change” value was -0.0596.

With RRIRQRPPRLPRPRPRPNDCPRP, the “shrunken log2 fold change” value was determined as 0.0531.

As to RRIRHRPPRLPRPRPRPHDDPRP, the “shrunken log2 fold change” value was -0.0997.
